Results as given in patent US8822661B2, “Xylose reductase mutants and uses thereof” (The Board of Trustees of the University of Illinois, priority 2007, dated 2014).
Like-named read-outs stand apart in the source and are kept apart here.

Columns and labels:
[1] = Kinetic characterization of purified mutant NcXRs, substrate L-arabinose (NADPH oxidation at A340); assay type: biochemical, Neurospora crassa
Experimental: (§1) NADPH concentration was kept >100 μM at all times, making it the non-rate-limiting reagent assuming no significant change in KM for mutants from the 1.8 μM for wild-type NcXR toward NADPH. All reactions were performed at pH 6.3 and 25° C., allowing for easy comparison to published data on wild-type NcXR. Initial reaction rate at each substrate concentration was measured by monitoring the rate of change at A340 upon addition of purified enzyme to the substrate mix. All readings were taken in at least two independent two data sets to minimize random error and eliminate experimental artifacts. […] Maximum reaction rates (kcat) were calculated based on molecular weight of dimeric NcXR.
(§2) Michaelis-Meten kinetic constants (KM, kcat) were determined. All reactions were performed at 25° C. in 50 mM MOPS buffer pH 6.3. NADPH concentration was kept >100 μM, usually between 100-400 μM and substrate concentrations were between 5 and 1500 mM for xylose and between 5 and 2000 mM for arabinose. Purified enzymes were kept on ice at all times to minimize thermal inactivation. Calculations were based on at least two independent datasets of two readings each, and were performed by least-squares fit method in Microcal Origin 5.0 (OriginLab Corporation, Northampton, Mass.). Substrate solutions were maintained at 25° C. in ThermoNESLAB RTE7 refrigerated water bath (Thermo Electron Corporation, Waltham, Mass.). A water-circulating jacketed the cuvette holder in Varian Cary 100 Bio UV-visible spectrophotometer (Varian, Palo Alto, Calif.). 500 μL substrate solution was added to a quartz cuvette with 10 mm path-length and mixed with 0.3-2 μg purified enzyme. Reaction rate was monitored as decrease in absorbance at 340 nm, corresponding to oxidation of NADPH (c=6220 M^−1 cm^−1) to NADP. Initial reaction rate was measured as the slope between 0.05 min and 0.25 min. Specific activity calculated for various substrate concentrations from initial reaction rates was used to calculate Michaelis-Menten constants.

[2] = XR of the named organism, cited from earlier work
[3] = cited from earlier work
[4] = Kinetic characterization of purified mutant NcXRs, substrate D-xylose (NADPH oxidation at A340); assay type: biochemical, Neurospora crassa
Experimental: as §1, §2

[5] = XR of the named organism, read-out: KM, NADPH

B1: wt: wild-type xylose reductase from Neurospora crassa, SEQ ID NO: 1 (NCU 08384.1) (protein, listed as Neurospora crassa)
chain: MVPAIKLNSGFDMPQVGFGLWKVDGSIASDVVYNAIKAGYRLFDGACDYGNEVECGQGVARAIKEGIVKREELFIVSKLWNTFHDGDRVEPIVRKQLADWGLEYFDLYLIHFPVALEYVDPSVRYPPGWHFDGKSEIRPSKATIQETWTAMESLVEKGLSKSIGVSNFQAQLLYDLLRYAKVRPATLQIEHHPYLVQQNLLNLAKAEGIAVTAYSSFGPASFREFNMEHAQKLQPLLEDPTIKAIGDKYNKDPAQVLLRWATQRGLAIIPKSSREATMKSNLNSLDFDLSEEDIKTISGFDRGIRFNQPTNYFSAENLWIFG
Km ([1]; pH 6.3, 25° C., NADPH >100 μM): 40000 µM | kcat ([1]; pH 6.3, 25° C., based on dimeric NcXR): 30 s⁻¹ | Catalytic Efficiency (relative) ([1]; relative to wt with D-xylose): 41% | kcat [2]: 60 s⁻¹ | Km ([2]; read-out: KM, xylose): 34000 µM | Km [3, 5]: 1.8 µM | Km ([3]; wild-type NcXR, published value, read-out: KM toward NADPH): 1.8 µM | xylose over arabinose specificity, in words [4]: higher than twofold | Selectivity (xylose-to-arabinose) ([4]; ratio of catalytic efficiency between xylose and arabinose): 2.4 | Catalytic Efficiency (relative) ([4]; substrate D-Xylose, relative to wt with D-xylose): 100%

B2: C. tenuis: xylose reductase (XR) from C. tenuis (protein, UniProt O74237 1-322, looked up)
NAD(P)H-dependent D-xylose …: MSASIPDIKLSSGHLMPSIGFGCWKLANATAGEQVYQAIKAGYRLFDGAEDYGNEKEVGDGVKRAIDEGLVKREEIFLTSKLWNNYHDPKNVETALNKTLADLKVDYVDLFLIHFPIAFKFVPIEEKYPPGFYCGDGNNFVYEDVPILETWKALEKLVAAGKIKSIGVSNFPGALLLDLLRGATIKPAVLQVEHHPYLQQPKLIEFAQKAGVTITAYSSFGPQSFVEMNQGRALNTPTLFAHDTIKAIAAKYNKTPAEVLLRWAAQRGIAVIPKSNLPERLVQNRSFNTFDLTKEDFEEIAKLDIGLRFNDPWDWDNIPIFV
Km [3, 5]: 4.8 µM

B3: P. siptitus: xylose reductase (XR) from P. siptitus as printed (protein, UniProt P31867 1-318, looked up)
NAD(P)H-dependent D-xylose …: MPSIKLNSGYDMPAVGFGCWKVDVDTCSEQIYRAIKTGYRLFDGAEDYANEKLVGAGVKKAIDEGIVKREDLFLTSKLWNNYHHPDNVEKALNRTLSDLQVDYVDLFLIHFPVTFKFVPLEEKYPPGFYCGKGDNFDYEDVPILETWKALEKLVKAGKIRSIGVSNFPGALLLDLLRGATIKPSVLQVEHHPYLQQPRLIEFAQSRGIAVTAYSSFGPQSFVELNQGRALNTSPLFENETIKAIAAKHGKSPAQVLLRWSSQRGIAIIPKSNTVPRLLENKDVNSFDLDEQDFADIAKLDINLRFNDPWDWDKIPIFV
Km [3, 5]: 9 µM

B4: S. cerevisiae: xylose reductase (XR) from S. cerevisiae (protein, UniProt P38715 2-327, looked up)
NADPH-dependent aldose …: SSLVTLNNGLKMPLVGLGCWKIDKKVCANQIYEAIKLGYRLFDGACDYGNEKEVGEGIRKAISEGLVSRKDIFVVSKLWNNFHHPDHVKLALKKTLSDMGLDYLDLYYIHFPIAFKYVPFEEKYPPGFYTGADDEKKGHITEAHVPIIDTYRALEECVDEGLIKSIGVSNFQGSLIQDLLRGCRIKPVALQIEHHPYLTQEHLVEFCKLHDIQVVAYSSFGPQSFIEMDLQLAKTTPTLFENDVIKKVSQNHPGSTTSQVLLRWATQRGIAVIPKSSKKERLLGNLEIEKKFTLTEQELKDISALNANIRFNDPWTWLDGKFPTFA
Km [3, 5]: 7.6 µM
